The data set has as its target 14-3-3 proteins.

These results are taken from patent publication US20220112558.

B1: ARAF mutant (ARAF-S214P), full-length, with two FLAG tags and two STREP tags, expressed in HEK293T cells (protein)
chain: DYKDDDDKDYKDDDDKWSHPQFEKWSHPQFEKMEPPRGPPANGAEPSRAVGTVKVYLPNKQRTVVTVRDGMSVYDSLDKALKVRGLNQDCCVVYRLIKGRKTVTAWDTAIAPLDGEELIVEVLEDVPLTMHNFVRKTFFSLAFCDFCLKFLFHGFRCQTCGYKFHQHCSSKVPTVCVDMSTNRQQFYHSVQDLSGGSRQHEAPSNRPLNELLTPQGPSPRTQHCDPEHFPFPAPANAPLQRIRSTPTPNVHMVSTTAPMDSNLIQLTGQSFSTDAAGSRGGSDGTPRGSPSPASVSSGRKSPHSKSPAEQRERKSLADDKKKVKNLGYRDSGYYWEVPPSEVQLLKRIGTGSFGTVFRGRWHGDVAVKVLKVSQPTAEQAQAFKNEMQVLRKTRHVNILLFMGFMTRPGFAIITQWCEGSSLYHHLHVADTRFDMVQLIDVARQTAQGMDYLHAKNIIHRDLKSNNIFLHEGLTVKIGDFGLATVKTRWSGAQPLEQPSGSVLWMAAEVIRMQDPNPYSFQSDVYAYGVVLYELMTGSLPYSHIGCRDQIIFMVGRGYLSPDLSKISSNCPKAMRRLLSDCLKFQREERPLFPQILATIELLQRSLPKIERSASEPSLHRTQADELPACLLSAARLVP
Turning to B1, the “activation of ERK1/2, as measured by increased phosphorylation” value is listed as “significantly greater activation of ERK1/2, as measured by increased phosphorylation, compared with HEK293T cells expressing wildtype (WT) ARAF”.
